Legend:
[1] = system: Mu-ENKISYQ-AMC (Glu-Asn-Lys-Ile-Ser-Tyr-Gln; SEQ ID NO:12)
[2] = system: Mu-ATKSKQH-AMC (Ala-Thr-Lys-Ser-Lys-Gln-His; SEQ ID NO:13)
[3] = system: Mu-QNKISYQ-AMC (Gln-Asn-Lys-Ile-Ser-Tyr-Gln; SEQ ID NO:11)
[4] = system: Mu-EHSSKLQ-AMC (Glu-His-Ser-Ser-Lys-Leu-Gln; SEQ ID NO:10)
[5] = system: Mu-HSSKLQ-AMC (His-Ser-Ser-Lys-Leu-Gln; SEQ ID NO:7)
[6] = system: Mu-SKLQ-AMC (Ser-Lys-Leu-Gln; SEQ ID NO:1)
[7] = system: Mu-ATKSKQH-AMC (Ala-Thr-Lys-Ser-Lys-Gln-His; SEQ ID NO:13); test: fluorogenic AMC-release kinetics, Lineweaver-Burke plot
[8] = system: Mu-HSSKLQ-AMC (His-Ser-Ser-Lys-Leu-Gln; SEQ ID NO:7); test: as above
[9] = system: Mu-SKLQ-AMC (Ser-Lys-Leu-Gln; SEQ ID NO:1); test: as above
[10] = system: Mu-EHSSKLQ-AMC (Glu-His-Ser-Ser-Lys-Leu-Gln; SEQ ID NO:10); test: as above

tissue plasminogen activator (TPA), sequence (P00750 36-562): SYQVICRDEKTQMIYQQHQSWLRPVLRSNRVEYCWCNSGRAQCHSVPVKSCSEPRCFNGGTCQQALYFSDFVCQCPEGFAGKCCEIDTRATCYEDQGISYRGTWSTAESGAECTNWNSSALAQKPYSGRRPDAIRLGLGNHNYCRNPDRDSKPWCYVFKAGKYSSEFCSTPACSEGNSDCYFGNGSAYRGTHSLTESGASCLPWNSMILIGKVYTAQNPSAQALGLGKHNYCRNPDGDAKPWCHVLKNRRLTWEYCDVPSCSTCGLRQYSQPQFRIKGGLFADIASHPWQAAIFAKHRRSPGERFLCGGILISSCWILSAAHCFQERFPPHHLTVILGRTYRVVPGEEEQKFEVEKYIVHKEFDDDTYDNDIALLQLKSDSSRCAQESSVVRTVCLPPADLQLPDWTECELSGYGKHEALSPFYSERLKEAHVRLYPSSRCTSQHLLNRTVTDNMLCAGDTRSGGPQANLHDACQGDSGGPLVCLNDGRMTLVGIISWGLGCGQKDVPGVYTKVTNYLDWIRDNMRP
plasmin, sequence (P00747 20-580): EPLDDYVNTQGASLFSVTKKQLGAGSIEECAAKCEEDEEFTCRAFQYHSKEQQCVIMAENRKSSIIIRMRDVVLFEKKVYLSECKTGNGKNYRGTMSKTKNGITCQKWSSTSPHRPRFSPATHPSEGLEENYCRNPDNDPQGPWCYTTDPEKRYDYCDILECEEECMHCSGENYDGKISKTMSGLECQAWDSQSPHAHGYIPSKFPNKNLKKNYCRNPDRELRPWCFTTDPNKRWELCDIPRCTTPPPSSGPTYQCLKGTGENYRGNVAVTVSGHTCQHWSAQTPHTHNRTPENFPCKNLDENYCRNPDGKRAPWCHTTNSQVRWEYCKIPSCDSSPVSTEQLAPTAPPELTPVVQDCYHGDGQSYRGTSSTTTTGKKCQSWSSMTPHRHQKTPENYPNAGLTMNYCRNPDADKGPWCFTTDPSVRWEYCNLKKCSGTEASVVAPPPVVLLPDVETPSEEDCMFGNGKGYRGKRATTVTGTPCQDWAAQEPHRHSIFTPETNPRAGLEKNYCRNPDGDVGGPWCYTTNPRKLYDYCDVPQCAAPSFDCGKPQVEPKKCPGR
plasmin, sequence (P00747 581-810): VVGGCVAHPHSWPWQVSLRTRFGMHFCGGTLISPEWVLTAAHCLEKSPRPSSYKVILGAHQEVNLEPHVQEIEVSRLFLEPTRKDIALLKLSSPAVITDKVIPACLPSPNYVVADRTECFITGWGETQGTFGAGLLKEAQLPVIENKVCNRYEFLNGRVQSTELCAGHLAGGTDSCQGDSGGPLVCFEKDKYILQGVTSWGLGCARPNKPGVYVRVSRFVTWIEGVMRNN

plasmin
substrate cleavage rate (AMC release) (pmol/min/200 pmol protease) [1]: 0.6 | substrate cleavage rate (AMC release) (pmol/min/200 pmol protease) [2]: < 0.1 | substrate cleavage rate (AMC release) (pmol/min/200 pmol protease) [3]: < 0.1 | substrate cleavage rate (AMC release) (pmol/min/200 pmol protease) [4]: < 0.1

tissue plasminogen activator (TPA)
substrate cleavage rate (AMC release) (pmol/min/200 pmol protease) [1]: 0.04 | substrate cleavage rate (AMC release) (pmol/min/200 pmol protease) [2]: < 0.1 | substrate cleavage rate (AMC release) (pmol/min/200 pmol protease) [3]: 0.4 | substrate cleavage rate (AMC release) (pmol/min/200 pmol protease) [4]: < 0.1

chymotrypsin
substrate cleavage rate (AMC release) (pmol/min/200 pmol protease) [1]: 3.6 | substrate cleavage rate (AMC release) (pmol/min/200 pmol protease) [2]: 38.8 | substrate cleavage rate (AMC release) (pmol/min/200 pmol protease) [3]: 9 | substrate cleavage rate (AMC release) (pmol/min/200 pmol protease) [4]: < 0.1

urokinase
substrate cleavage rate (AMC release) (pmol/min/200 pmol protease) [1]: < 0.1 | substrate cleavage rate (AMC release) (pmol/min/200 pmol protease) [2]: < 0.1 | substrate cleavage rate (AMC release) (pmol/min/200 pmol protease) [4]: < 0.1

porcine liver esterase
peptide cleavage rate (AMC release) (pmol/min/200 pmol protease) [5]: < 0.1 | peptide cleavage rate (AMC release) (pmol/min/200 pmol protease) (Mu-LQ-AMC): < 0.1 | peptide cleavage rate (AMC release) (pmol/min/200 pmol protease) [6]: < 0.1 | peptide cleavage rate (AMC release) (pmol/min/200 pmol protease) [4]: < 0.1 | peptide cleavage rate (AMC release) (pmol/min/200 pmol protease) (Mu-KLQ-AMC): < 0.1

human kallikrein, hK1
substrate cleavage rate (AMC release) (pmol/min/200 pmol protease) [1]: < 0.1 | substrate cleavage rate (AMC release) (pmol/min/200 pmol protease) [2]: < 0.1 | substrate cleavage rate (AMC release) (pmol/min/200 pmol protease) [4]: < 0.1

Cathepsin B
peptide cleavage rate (AMC release) (pmol/min/200 pmol protease) [5]: 17.3 | peptide cleavage rate (AMC release) (pmol/min/200 pmol protease) (Mu-LQ-AMC): 190 | peptide cleavage rate (AMC release) (pmol/min/200 pmol protease) [6]: 31.2 | peptide cleavage rate (AMC release) (pmol/min/200 pmol protease) [4]: 4.3 | peptide cleavage rate (AMC release) (pmol/min/200 pmol protease) (Mu-KLQ-AMC): 87

Cathepsin D
peptide cleavage rate (AMC release) (pmol/min/200 pmol protease) [5]: 3.8 | peptide cleavage rate (AMC release) (pmol/min/200 pmol protease) (Mu-LQ-AMC): 20 | peptide cleavage rate (AMC release) (pmol/min/200 pmol protease) [6]: 6.4 | peptide cleavage rate (AMC release) (pmol/min/200 pmol protease) [4]: 2.2

prostate specific antigen (PSA)
substrate cleavage rate (AMC release) (pmol/min/200 pmol protease) [1]: 14.4 | Kcat [2]: 0.0091 s⁻¹ | Kcat/Km [2]: 6.9 s^-1M^-1 | substrate cleavage rate (AMC release) (pmol/min/200 pmol protease) [2]: 16 | substrate cleavage rate (AMC release) (pmol/min/200 pmol protease) [3]: 16.8 | Kcat [5]: 0.011 s⁻¹ | Kcat/Km [5]: 23.6 s^-1M^-1 | peptide cleavage rate (AMC release) (pmol/min/200 pmol protease) [5]: 62.7 | peptide cleavage rate (AMC release) (pmol/min/200 pmol protease) (Mu-LQ-AMC): < 0.1 | Kcat [6]: 0.02 s⁻¹ | Kcat/Km [6]: 24.6 s^-1M^-1 | peptide cleavage rate (AMC release) (pmol/min/200 pmol protease) [6]: 29.6 | Kcat [4]: 0.02 s⁻¹ | Kcat/Km [4]: 10.6 s^-1M^-1 | peptide cleavage rate (AMC release) (pmol/min/200 pmol protease) [4]: 31.6 | substrate cleavage rate (AMC release) (pmol/min/200 pmol protease) [4]: 31.6 | peptide cleavage rate (AMC release) (pmol/min/200 pmol protease) (Mu-KLQ-AMC): 0.4 | Km [7]: 310 µM | Km [8]: 470 µM | Km [9]: 813 µM | Km [10]: 1160 µM

Cathepsin C
peptide cleavage rate (AMC release) (pmol/min/200 pmol protease) [5]: < 0.1 | peptide cleavage rate (AMC release) (pmol/min/200 pmol protease) (Mu-LQ-AMC): < 0.1 | peptide cleavage rate (AMC release) (pmol/min/200 pmol protease) [6]: < 0.1 | peptide cleavage rate (AMC release) (pmol/min/200 pmol protease) [4]: < 0.1 | peptide cleavage rate (AMC release) (pmol/min/200 pmol protease) (Mu-KLQ-AMC): < 0.1

thrombin
substrate cleavage rate (AMC release) (pmol/min/200 pmol protease) [1]: 0.3 | substrate cleavage rate (AMC release) (pmol/min/200 pmol protease) [2]: 0.2 | substrate cleavage rate (AMC release) (pmol/min/200 pmol protease) [3]: 0.4 | substrate cleavage rate (AMC release) (pmol/min/200 pmol protease) [4]: < 0.1

elastase
substrate cleavage rate (AMC release) (pmol/min/200 pmol protease) [1]: 2.6 | substrate cleavage rate (AMC release) (pmol/min/200 pmol protease) [2]: < 0.1 | substrate cleavage rate (AMC release) (pmol/min/200 pmol protease) [3]: 9 | substrate cleavage rate (AMC release) (pmol/min/200 pmol protease) [4]: < 0.1

— patent US6545131
